From US6060513A, “Compounds and compositions for delivering active agents” (Emisphere Technologies, Inc., priority 1997, dated 2000)

Test: In Vivo Interferon Delivery (ELISA for human interferon)
Parameters: species or system Rats
Conditions: 1 mg/kg interferon, no carrier

interferon
Mean peak serum interferon concentration (IC): 79±100 | Mean peak serum interferon concentration (PO): 1951±1857
